Data from IntAct's records for PubMed 27427983.

B1: Non-structural maintenance of chromosomes element 3 homolog (Homo sapiens), Q96MG7 (parent)
chain: MLQKPRNRGRSGGQAERDRDWSHSGNPGASRAGEDARVLRDGFAEEAPSTSRGPGGSQGSQGPSPQGARRAQAAPAVGPRSQKQLELKVSELVQFLLIKDQKKIPIKRADILKHVIGDYKDIFPDLFKRAAERLQYVFGYKLVELEPKSNTYILINTLEPVEEDAEMRGDQGTPTTGLLMIVLGLIFMKGNTIKETEAWDFLRRLGVYPTKKHLIFGDPKKLITEDFVRQRYLEYRRIPHTDPVDYEFQWGPRTNLETSKMKVLKFVAKVHNQDPKDWPAQYCEALADEENRARPQPSGPAPSS
partner: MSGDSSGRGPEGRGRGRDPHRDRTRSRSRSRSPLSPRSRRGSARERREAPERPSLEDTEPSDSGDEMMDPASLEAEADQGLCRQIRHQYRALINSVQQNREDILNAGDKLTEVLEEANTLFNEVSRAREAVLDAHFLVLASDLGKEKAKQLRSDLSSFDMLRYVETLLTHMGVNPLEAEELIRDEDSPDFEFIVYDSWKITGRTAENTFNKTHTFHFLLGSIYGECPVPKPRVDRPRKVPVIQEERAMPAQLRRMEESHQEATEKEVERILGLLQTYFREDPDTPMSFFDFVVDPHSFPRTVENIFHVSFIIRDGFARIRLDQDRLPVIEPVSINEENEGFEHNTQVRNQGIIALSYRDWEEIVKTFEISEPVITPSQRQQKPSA
B2: Non-structural maintenance of chromosomes element 3 homolog (Homo sapiens), Q96MG7 (parent)
chain: B1 chain
partner: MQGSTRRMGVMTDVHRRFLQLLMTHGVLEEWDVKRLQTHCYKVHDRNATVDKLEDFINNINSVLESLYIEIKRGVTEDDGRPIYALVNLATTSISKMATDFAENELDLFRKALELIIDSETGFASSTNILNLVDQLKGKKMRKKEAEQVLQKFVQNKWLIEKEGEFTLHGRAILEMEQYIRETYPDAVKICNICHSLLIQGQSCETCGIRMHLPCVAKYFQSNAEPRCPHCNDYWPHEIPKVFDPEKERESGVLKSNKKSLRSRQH
B3: Non-structural maintenance of chromosomes element 3 homolog (Homo sapiens), Q96MG7 (parent)
chain: B1 chain
partner: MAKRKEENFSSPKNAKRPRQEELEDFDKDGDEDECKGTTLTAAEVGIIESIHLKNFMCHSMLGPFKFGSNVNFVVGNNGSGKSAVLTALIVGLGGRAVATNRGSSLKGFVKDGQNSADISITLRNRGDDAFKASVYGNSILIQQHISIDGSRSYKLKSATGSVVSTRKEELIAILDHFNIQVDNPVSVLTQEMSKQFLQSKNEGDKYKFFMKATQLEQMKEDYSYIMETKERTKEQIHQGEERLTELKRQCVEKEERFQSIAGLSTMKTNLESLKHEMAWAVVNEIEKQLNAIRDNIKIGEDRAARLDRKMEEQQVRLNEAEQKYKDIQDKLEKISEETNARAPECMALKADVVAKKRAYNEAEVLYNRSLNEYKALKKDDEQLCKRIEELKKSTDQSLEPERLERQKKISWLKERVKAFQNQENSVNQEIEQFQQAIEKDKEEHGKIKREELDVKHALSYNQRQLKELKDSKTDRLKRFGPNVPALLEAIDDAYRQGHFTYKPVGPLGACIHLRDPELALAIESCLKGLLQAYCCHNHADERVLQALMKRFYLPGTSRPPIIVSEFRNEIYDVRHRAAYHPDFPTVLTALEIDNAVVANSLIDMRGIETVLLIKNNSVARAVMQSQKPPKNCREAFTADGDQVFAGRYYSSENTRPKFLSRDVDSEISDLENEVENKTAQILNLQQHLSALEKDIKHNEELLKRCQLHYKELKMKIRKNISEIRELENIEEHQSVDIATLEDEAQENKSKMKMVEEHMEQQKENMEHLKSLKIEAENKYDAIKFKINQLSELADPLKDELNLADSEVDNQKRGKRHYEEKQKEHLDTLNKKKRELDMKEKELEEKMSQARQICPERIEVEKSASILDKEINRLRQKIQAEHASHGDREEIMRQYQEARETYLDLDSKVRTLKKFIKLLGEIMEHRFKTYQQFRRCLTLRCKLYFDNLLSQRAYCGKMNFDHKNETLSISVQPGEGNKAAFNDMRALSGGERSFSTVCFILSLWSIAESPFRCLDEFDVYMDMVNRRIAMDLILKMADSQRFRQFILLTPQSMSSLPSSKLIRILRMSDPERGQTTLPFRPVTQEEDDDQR

Variants of: B1
Details: with nse4a_human NSMCE4A
MLQKPRNRGRSGGQAERDRDWSHSGNPGASRAGEDARVLRDGFAEEAPSTSRGPGGSQGSQGPSPQGARRAQAAPAVGPRSQKQLELKVSELVQFLAIKDQKKIPIKRADILKHVIGDYKDIFPDLFKRAAERLQYVFGYKLVELEPKSNTYILINTLEPVEEDAEMRGDQGTPTTGLLMIVLGLIFMKGNTIKETEAWDFLRRLGVYPTKKHLIFGDPKKLITEDFVRQRYLEYRRIPHTDPVDYEFQWGPRTNLETSKMKVLKFVAKVHNQDPKDWPAQYCEALADEENRARPQPSGPAPSS [L97A] was tested, and the “effect of a mutation on the interaction” value was “with no effect”.
For MLQKPRNRGRSGGQAERDRDWSHSGNPGASRAGEDARVLRDGFAEEAPSTSRGPGGSQGSQGPSPQGARRAQAAPAVGPRSQKQLELKVSELVQFLLIKDQKKIPIKRADILKHVIGDYKDIFPDLFKRAAERLQYVFGYKLVELEPKSNTYILINTLEPVEEDAEMRGDQGTPTTGLLMIVLGLIFMKGNTIKETEAWDFLRRLGVYLTKKHLIFGDPKKLITEDFVRQRYLEYRRIPHTDPVDYEFQWGPRTNLETSKMKVLKFVAKVHNQDPKDWPAQYCEALADEENRARPQPSGPAPSS [P209L], the “effect of a mutation on the interaction” value was “disrupting interaction strength”.
With MLQKPRNRGRSGGQAERDRDWSHSGNPGASRAGEDARVLRDGFAEEAPSTSRGPGGSQGSQGPSPQGARRAQAAPAVGPRSQKQLELKVSELVQFLLIKDQKKIPIKRADILKHVIGDYKDIFPDLFKRAAERLQYVFGYKLVELEPKSNTYILINTLEPVEEDAEMRGDQGTPTTGLLMIVLGLIFMKGNTIKETEAWDFLRRLGVYPTKKHLIFGDPKKLITEDFVRQRYLEYRRIPHTDPVDYEFQWGPRTNLETSKMKVFKFVAKVHNQDPKDWPAQYCEALADEENRARPQPSGPAPSS [L264F] the “effect of a mutation on the interaction” value was “disrupting interaction strength”.
MLQKPRNRGRSGGQAERDRDWSHSGNPGASRAGEDARVLRDGFAEEAPSTSRGPGGSQGSQGPSPQGARRAQAAPAVGPRSQKQLELKVSELVQFLLIKDQKKIPIKRADILKHVIGDYKDIFPDLFKRAAERLQYVFGYKLVELEPKSNTYILINTLEPVEEDAEMRGDQGTPTTGLLMIVLGLIFMKGNTIKETEAWDFLRRLGVYPTKKHLIFGDPKKLITEDFVRQRYLEYRRIPHTDPVDYEFQWGPRTNLETSKMKVLKAVAKVHNQDPKDWPAQYCEALADEENRARPQPSGPAPSS [F266A] was tested, and the “effect of a mutation on the interaction” value was “disrupting interaction strength”.

Variants of: B2
Details: with nse1_human NSMCE1, Q8WV22
In the case of MLQKPRNRGRSGGQAERDRDWSHSGNPGASRAGEDARVLRDGFAEEAPSTSRGPGGSQGSQGPSPQGARRAQAAPAVGPRSQKQLELKVSELVQFLAIKDQKKIPIKRADILKHVIGDYKDIFPDLFKRAAERLQYVFGYKLVELEPKSNTYILINTLEPVEEDAEMRGDQGTPTTGLLMIVLGLIFMKGNTIKETEAWDFLRRLGVYPTKKHLIFGDPKKLITEDFVRQRYLEYRRIPHTDPVDYEFQWGPRTNLETSKMKVLKFVAKVHNQDPKDWPAQYCEALADEENRARPQPSGPAPSS [L97A], the “effect of a mutation on the interaction” value is reported as “disrupting interaction strength”.
For MLQKPRNRGRSGGQAERDRDWSHSGNPGASRAGEDARVLRDGFAEEAPSTSRGPGGSQGSQGPSPQGARRAQAAPAVGPRSQKQLELKVSELVQFLLIKDQKKIPIKRADILKHVIGDYKDIFPDLFKRAAERLQYVFGYKLVELEPKSNTYILINTLEPVEEDAEMRGDQGTPTTGLLMIVLGLIFMKGNTIKETEAWDFLRRLGVYLTKKHLIFGDPKKLITEDFVRQRYLEYRRIPHTDPVDYEFQWGPRTNLETSKMKVLKFVAKVHNQDPKDWPAQYCEALADEENRARPQPSGPAPSS [P209L], the “effect of a mutation on the interaction” value was “decreasing interaction strength”.
In the case of MLQKPRNRGRSGGQAERDRDWSHSGNPGASRAGEDARVLRDGFAEEAPSTSRGPGGSQGSQGPSPQGARRAQAAPAVGPRSQKQLELKVSELVQFLLIKDQKKIPIKRADILKHVIGDYKDIFPDLFKRAAERLQYVFGYKLVELEPKSNTYILINTLEPVEEDAEMRGDQGTPTTGLLMIVLGLIFMKGNTIKETEAWDFLRRLGVYPTKKHLIFGDPKKLITEDFVRQRYLEYRRIPHTDPVDYEFQWGPRTNLETSKMKVFKFVAKVHNQDPKDWPAQYCEALADEENRARPQPSGPAPSS [L264F], the “effect of a mutation on the interaction” value is reported as “with no effect”.
With MLQKPRNRGRSGGQAERDRDWSHSGNPGASRAGEDARVLRDGFAEEAPSTSRGPGGSQGSQGPSPQGARRAQAAPAVGPRSQKQLELKVSELVQFLLIKDQKKIPIKRADILKHVIGDYKDIFPDLFKRAAERLQYVFGYKLVELEPKSNTYILINTLEPVEEDAEMRGDQGTPTTGLLMIVLGLIFMKGNTIKETEAWDFLRRLGVYPTKKHLIFGDPKKLITEDFVRQRYLEYRRIPHTDPVDYEFQWGPRTNLETSKMKVLKAVAKVHNQDPKDWPAQYCEALADEENRARPQPSGPAPSS [F266A] the “effect of a mutation on the interaction” value was “with no effect”.

Variants of: B2
Details: with nse1_human NSMCE1, Q8WV22
Remark: another data set of the same source
MLQKPRNRGRSGGQAERDRDWSHSGNPGASRAGEDARVLRDGFAEEAPSTSRGPGGSQGSQGPSPQGARRAQAAPAVGPRSQKQLELKVSELVQFLLIKDQKKIPIKRADILKHVIGDYKDIFPDLFKRAAERLQYVFGYKLVELEPKSNTYILINTLEPVEEDAEMRGDQGTPTTGLLMIVLGLIFMKGNTIKETEAWDFLRRLGVYPTKKHLIFGDPKKLITEDFVRQRYLEYRRIPHTDPVDYEFQWGPRTNLETSKMKVFKFVAKVHNQDPKDWPAQYCEALADEENRARPQPSGPAPSS [L264F] was tested, and the “effect of a mutation on the interaction” value was “decreasing interaction strength”.

Variants of: B3
Details: with smc6_human SMC6, Q96SB8
In the case of MLQKPRNRGRSGGQAERDRDWSHSGNPGASRAGEDARVLRDGFAEEAPSTSRGPGGSQGSQGPSPQGARRAQAAPAVGPRSQKQLELKVSELVQFLLIKDQKKIPIKRADILKHVIGDYKDIFPDLFKRAAERLQYVFGYKLVELEPKSNTYILINTLEPVEEDAEMRGDQGTPTTGLLMIVLGLIFMKGNTIKETEAWDFLRRLGVYPTKKHLIFGDPKKLITEDFVRQRYLEYRRIPHTDPVDYEFQWGPRTNLETSKMKVFKFVAKVHNQDPKDWPAQYCEALADEENRARPQPSGPAPSS [L264F], the “effect of a mutation on the interaction” value is reported as “disrupting interaction strength”.
